Values of other authors as cited in article PMC12865133, “Macrocyclic Molecular Glues for the 14‐3‐3/ChREBP Interaction: Affinity and Cooperativity in an Inverse Relationship” (Angewandte Chemie (International Ed. in English), 2025).

Target: ChREBP (Homo sapiens) (UniProt Q9NP71)
Details: cited from earlier work

Sequence of 14-3-3 (P31946 2-246): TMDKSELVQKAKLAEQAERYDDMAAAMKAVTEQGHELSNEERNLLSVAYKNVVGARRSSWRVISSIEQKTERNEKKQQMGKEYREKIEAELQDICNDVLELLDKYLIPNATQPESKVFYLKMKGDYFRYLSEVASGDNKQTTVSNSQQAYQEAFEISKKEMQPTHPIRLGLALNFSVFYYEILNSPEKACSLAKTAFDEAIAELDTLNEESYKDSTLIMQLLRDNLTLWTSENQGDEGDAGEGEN
Sequence of ChREBP (Homo sapiens) (Q9NP71 whole entry): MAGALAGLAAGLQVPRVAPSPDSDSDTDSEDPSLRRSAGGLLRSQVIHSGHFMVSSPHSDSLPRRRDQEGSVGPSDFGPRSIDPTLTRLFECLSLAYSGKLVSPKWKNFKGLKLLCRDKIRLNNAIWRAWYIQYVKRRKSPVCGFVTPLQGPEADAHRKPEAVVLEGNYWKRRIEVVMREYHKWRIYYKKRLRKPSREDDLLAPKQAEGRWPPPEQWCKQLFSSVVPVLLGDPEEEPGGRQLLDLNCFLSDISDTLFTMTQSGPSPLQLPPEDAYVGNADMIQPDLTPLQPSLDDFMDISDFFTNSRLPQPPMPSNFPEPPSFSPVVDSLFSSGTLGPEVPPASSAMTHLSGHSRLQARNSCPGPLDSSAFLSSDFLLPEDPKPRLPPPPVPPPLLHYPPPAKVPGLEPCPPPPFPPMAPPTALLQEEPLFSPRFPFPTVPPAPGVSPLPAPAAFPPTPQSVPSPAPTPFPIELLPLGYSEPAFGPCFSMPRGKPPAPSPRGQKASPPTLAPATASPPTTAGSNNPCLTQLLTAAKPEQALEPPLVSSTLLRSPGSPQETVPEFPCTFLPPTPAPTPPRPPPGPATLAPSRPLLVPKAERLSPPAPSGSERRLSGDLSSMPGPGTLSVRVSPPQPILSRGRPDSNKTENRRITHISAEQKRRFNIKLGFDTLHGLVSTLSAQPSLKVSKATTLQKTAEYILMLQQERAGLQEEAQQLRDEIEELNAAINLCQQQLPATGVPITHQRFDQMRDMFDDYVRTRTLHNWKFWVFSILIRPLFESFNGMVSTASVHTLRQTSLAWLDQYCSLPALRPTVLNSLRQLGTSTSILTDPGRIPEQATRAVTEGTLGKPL

## 14-3-3 (from UniProt P31946)
  Kd: 1500 nM
